{"source": "patent WO2019076277A1", "about": "(dated 2019)", "binders": {"B1": {"name": "mAb229 (antibody, V domains shown)", "VH": "QIQLVQSGPELKKPGETVKISCKASGYTFTTSGMSWVKQAPGKGLKWMGWINTYSGVPTYADDFKGRFAFSLETSASTAYLQINNLKNEDTATYFCARDNYDARDVYYYAMDYWGQGTSVTVSS", "VL": "DIQMTQSPASLSVSVGETVTITCRASENIYSNLAWYQQKQGKSPQLLVYAATNLADGVPSRFSGSGSGTQYSLKINSLQSEDFGSYYCQHFWITPWTFGGGTKLEIK", "notes": "also called LAG-3 antibody mAb229; hybridoma clone mAb229"}, "B2": {"name": "mAb303 (antibody, V domains shown)", "VH": "EVQLQQSGPVLVKPGASVKMSCKASGYTLTDYYMNWVKQSHGKSLEWIGVINPYNGDTAYNQKFKGKATLTVDKSSNTAYMEINSLTSEDSAVYYCTRDDGYYDYYFDVWGTGTTVTVSS", "VL": "DIQMTQSPSSLSASLGERVILTCRASQDIGSRLNWLQQGPDGTFKRLIYATSTLDSGVPKRFSGSRSGSDFSLTISSLESEDFVDYYCLQLASSPPTFGGGTKLEIK", "notes": "also called LAG-3 antibody mAb303; hybridoma clone mAb303"}}, "key": {"[1]": {"target": "T1, human LAG-3 protein (human, UniProt P18627 23-450, limits assumed)", "T1 construct": "also called human LAG-3 antigen; LAG-3 antigen", "T1 sequence (looked up)": "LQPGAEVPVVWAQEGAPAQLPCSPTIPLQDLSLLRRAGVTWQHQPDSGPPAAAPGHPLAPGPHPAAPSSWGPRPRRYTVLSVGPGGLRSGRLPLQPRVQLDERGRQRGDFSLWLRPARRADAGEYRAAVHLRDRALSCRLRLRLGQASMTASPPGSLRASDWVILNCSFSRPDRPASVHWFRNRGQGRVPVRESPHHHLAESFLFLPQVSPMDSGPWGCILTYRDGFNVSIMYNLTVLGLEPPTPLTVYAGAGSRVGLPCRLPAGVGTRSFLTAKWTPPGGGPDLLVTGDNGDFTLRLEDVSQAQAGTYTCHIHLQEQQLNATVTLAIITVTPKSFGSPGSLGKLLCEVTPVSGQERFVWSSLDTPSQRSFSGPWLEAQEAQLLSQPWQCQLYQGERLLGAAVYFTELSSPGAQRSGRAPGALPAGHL", "assay": "binding ELISA on human LAG-3 protein (Test Example 1)"}, "[2]": {"target": "T2, human LAG-3 full-length protein overexpressed on CHO-S cells (human, UniProt P18627 23-525)", "T2 construct": "whole, on cells; also called full-length LAG-3; CHO-S cells overexpressing the human LAG-3 full-length protein", "T2 sequence (looked up)": "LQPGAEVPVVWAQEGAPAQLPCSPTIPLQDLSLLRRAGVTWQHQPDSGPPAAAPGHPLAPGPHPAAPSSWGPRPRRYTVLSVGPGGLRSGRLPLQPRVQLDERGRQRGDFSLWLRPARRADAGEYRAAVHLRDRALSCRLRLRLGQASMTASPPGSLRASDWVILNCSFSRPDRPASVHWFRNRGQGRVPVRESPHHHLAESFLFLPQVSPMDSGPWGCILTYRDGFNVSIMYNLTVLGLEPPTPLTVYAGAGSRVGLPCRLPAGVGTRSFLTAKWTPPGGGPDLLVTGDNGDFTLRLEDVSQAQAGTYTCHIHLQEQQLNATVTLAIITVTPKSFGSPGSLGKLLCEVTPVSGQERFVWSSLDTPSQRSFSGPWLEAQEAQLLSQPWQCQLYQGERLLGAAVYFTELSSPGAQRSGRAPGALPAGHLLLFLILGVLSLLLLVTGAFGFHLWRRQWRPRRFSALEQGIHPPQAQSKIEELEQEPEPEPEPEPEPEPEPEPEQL", "assay": "cell ELISA on CHO-S cells overexpressing human LAG-3 (Test Example 2)"}}, "data": [{"binder": "B1", "values": [{"measurement": "binding result", "setting": "[1]", "value": "binds"}, {"measurement": "binding result", "setting": "[2]", "value": "binds"}]}, {"binder": "B2", "values": [{"measurement": "binding result", "setting": "[1]", "value": "binds"}, {"measurement": "binding result", "setting": "[2]", "value": "binds"}]}]}
